# Test results: the supplement of paper PMC11780869
# Test system: Bacillus subtilis
# Assay: cleaved RNA product abundance (RNA/gDNA barcode ratio) relative to median wild-type variant (ratio to wild type); higher = more accumulation of the downstream cleavage product
# Method in brief: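 Oligos with a 9% error rate were used to build barcoded, mutagenized RNase Y cleavage-site windows within truncated aprE or tetM reporter mRNAs, which were integrated into the B. subtilis chromosome. Cultures were grown in LB at 37°C between OD600 0.0003 and 0.3. Cleaved RNA was gel-selected, reverse transcribed and barcode-sequenced, as were genomic DNA barcodes, and UMIs were collapsed. Cleaved product abundance is the scaled RNA:gDNA barcode ratio, with the median construct carrying the unmutated site as reference.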
# [1] = experiment (reporter, strain, medium): exp 2b: truncated aprE reporter, strain BJT200, cleavage site: cggR-gapA (positions -7 to +36 mutated)
# [2] = experiment (reporter, strain, medium): exp 4a: truncated aprE reporter, strain BJT201 with 2% xylose (RNase J1 expressed), cleavage site: cggR-gapA (positions -7 to +36 mutated)
# [3] = experiment (reporter, strain, medium): exp 6: tetM reporter, strain 168, cleavage site: cggR-gapA (positions -7 to +36 mutated)
# [4] = experiment (reporter, strain, medium): exp 8a: truncated aprE reporter, strain BJT201 with 2% xylose (RNase J1 expressed), cleavage site: glnRA (positions -5 to +31 mutated)
sequence,measurement,setting,value
ACAGACGAAGGAGCCGCAAAGAAGTTATTAAGGGATGAATAATCCCTCAAAATAAATATCTCTCACTTATTTAAA,cleaved RNA product abundance,[1],0.302
same,cleaved RNA product abundance,[2],0.393
same,cleaved RNA product abundance,[3],0.369
ACAGACGAAGGAGCCGCAAAGAAGTTTTTAAGGGAAGAATAATCCCTCAATATAAATATCTCTCACTTATTTAAA,cleaved RNA product abundance,[1],0.128
same,cleaved RNA product abundance,[2],0.149
ACAGACGAAGGAGCCGCAAAGAAGTTATTAAGCGATGAATAATCCCTCAATATAAATATCTCTCACTTATTTAAA,cleaved RNA product abundance,[1],0.0916
same,cleaved RNA product abundance,[2],0.116
same,cleaved RNA product abundance,[3],0.132
CGACATGTCCCGCTTCTTTCATTAATCCGTTAGAAACTGTTTTACTATATACATTTACCTTTTAAGAGGAGGAAT,cleaved RNA product abundance,[4],0.422
CGACATGTCCCGCTTCTTTCATTAATACGTTAGCAAATGTTTTGCTATATACATTTACCTTTTAAGAGGAGGAAT,cleaved RNA product abundance,[4],1.26
ACAGACGAAGGAGCCGCAAAGAAGTTATGAAGGGAGGAATAATCCCTCAATATAAATATCTCTCACTTATTTAAA,cleaved RNA product abundance,[1],0.22
CGACATGTCCCGCTTCTTTCATTAATCCGTTAGCAACTGTTTTGCCATATACGTTTACCTTTTAAGAGGAGGAAT,cleaved RNA product abundance,[4],0.0858
ACAGACGAAGGAGCCGCAAAGAAGTTATTAAGGAATGAAAAATCCCTCAATATAAATATCTCTCACTTATTTAAA,cleaved RNA product abundance,[1],0.0892
same,cleaved RNA product abundance,[2],0.137
ACAGACGAAGGAGCCGCAAAGAATTTATTAAGGGATGAATAATCTCTCAATATAAATATCTCTCACTTATTTAAA,cleaved RNA product abundance,[2],0.844
ACAGACGAAGGAGCCGCAAAGAAGTTATTAAGGGATGAAAAATCCCTCTATATAAATATCTCTCACTTATTTAAA,cleaved RNA product abundance,[2],0.535
CGACATGTCCCGCTTCTTTCATTAATCCGTTAGCAACTGTTTTGCTATATAAATTTACATTTTAAGAGGAGGAAT,cleaved RNA product abundance,[4],1.83
ACAGACGAAGGAGCCGCAAAGAAGTTATTAAGGGATGAATAATCCCTCAATATAAACATCTCTCACTTATTTAAA,cleaved RNA product abundance,[1],0.652
same,cleaved RNA product abundance,[2],0.702
same,cleaved RNA product abundance,[3],0.847
ACAGACGAAGGAGCCGCAAAGAAATTATTAAGGGATGAATAATCCCTCAATAAAAATATCTCTCACTTATTTAAA,cleaved RNA product abundance,[1],0.178
CGACATGTCCCGCTTCTTTCATTAATCCGTTAGCAAATGTTTTGCTATATACATTTACATTTTAAGAGGAGGAAT,cleaved RNA product abundance,[4],1.23
CGACATGTCCCGCTTCTTTCATTAATCCGTTAGCAACTGTTTTTCAATATACATTTACCTTTTAAGAGGAGGAAT,cleaved RNA product abundance,[4],0.551
ACAGACGAAGGAGCCGCAAAGAAGTTATAAAGGTATGAATAATCCCTCAATATAAATATCTCTCACTTATTTAAA,cleaved RNA product abundance,[1],0.0925
same,cleaved RNA product abundance,[2],0.0975
CGACATGTCCCGCTTCTTTCATTAATCCCTTAGCAACTGTTTTGCTATATTCATTTACCTTTTAAGAGGAGGAAT,cleaved RNA product abundance,[4],0.153
ACAGACGAAGGAGCCGCAAAGAAGTTATTAAGGGATGAATCATCCCTTAATATAAATATCTCTCACTTATTTAAA,cleaved RNA product abundance,[2],0.46
ACAGACGAAGGAGCCGCAAAGAAGTTATTAAGGGACGAATAAACCCTCAATATAAATATCTCTCACTTATTTAAA,cleaved RNA product abundance,[1],0.197
same,cleaved RNA product abundance,[2],0.237
CGACATGTCCCGCTTCTTTCATTAATCCGTTAGCAACTGTTTTGCTATATACATTTAGCATTTAAGAGGAGGAAT,cleaved RNA product abundance,[4],0.755
CGACATGTCCCGCTTCTTTCATTAATTCGTTAGCAACTGTTTTGCTATCTACATTTACCTTTTAAGAGGAGGAAT,cleaved RNA product abundance,[4],0.0856
ACAGACGAAGGAGCCGCAAAGAAGTTTTTAAGGGATAAATAATCCCTCAATATAAATATCTCTCACTTATTTAAA,cleaved RNA product abundance,[2],0.214
CGACATGTCCCGCTTCTTTCATTAATCCCTTAGCAACTCTTTTGCTATATACATTTACCTTTTAAGAGGAGGAAT,cleaved RNA product abundance,[4],0.0915
ACAGACGAAGGAGCCGCAAAGAAGTTATTAAGGGATAAGTAATCCCTCAATATAAATATCTCTCACTTATTTAAA,cleaved RNA product abundance,[1],0.555
same,cleaved RNA product abundance,[2],0.785
ACAGACGAAGGAGCCGCAAAGAAGTTAATAAGGGATGAATAAGCCCTCAATATAAATATCTCTCACTTATTTAAA,cleaved RNA product abundance,[2],0.197
ACAGACGAAGGAGCCGCAAAAAAGTTATTAAGGCATGAATAATCCCTCAATATAAATATCTCTCACTTATTTAAA,cleaved RNA product abundance,[1],0.104
same,cleaved RNA product abundance,[2],0.126
CGACATGTCCCGCTTCTTTCATTAATCCGTTAGCAACTGTTTTGCTATATACATTTACCCTTTAAGAGGAGGAAT,cleaved RNA product abundance,[4],0.763
ACAGACGAAGGAGCCGCAAAGAAGTTATAAAGGGATCAATAATCCCTCAATATAAATATCTCTCACTTATTTAAA,cleaved RNA product abundance,[1],0.26
same,cleaved RNA product abundance,[2],0.434
